Data published in patent publication US20080044436A1, “Method for Screening and Compositions for Treating Cancers” (priority 2004, published 2008).

Assays:
[1] = test system: p27 promoter; experiment: Luciferase reporter assay in HeLa cells, p27 promoter; type: cell-based, human; settings: 0.3 μg TReP-132 expression vector, dose-dependent
Description: The pGL2 and pGL3 reporter constructs (100 ng) were cotransfected with the indicated amounts of expression vectors and 10 ng of the control plasmid pRL.Null. The amount of plasmid was then normalized with the empty vector pcDNA3. After 12 hours of transfection, the medium was changed and cells were incubated for an additional 10 and 34 hours, respectively. During this period, T47-D cells were cultured in the presence and absence of progesterone (30 nM). The cells were then harvested and cell lysates (20 μl) were assayed for luciferase activity (Dual Luciférase™ Reporter Assay System, Promega, Madison, Wis., USA) in a Berthold LUMAT LB9501 luminometer. The transfections were performed in triplicate and each experiment was repeated at least three times.
TReP-132 activation of the p21, p27 and p16 cyclin kinase inhibitor promoters was studied by transfection of HeLa and T47-D cells. HeLa cells were seeded in 24-well plates at an initial density of 15,000 cells per well and transfected the next day with ExGen 500 (MBI Fermentas, Flamborough, Ontario, Canada) at a ratio of 4 μl of ExGen 500 per 0.5 μg DNA. T47-D cells were seeded at a density of 100,000 cells per well and transfected the next day with FuGENE 6 reagent (Roche Molecular Biochemicals, Laval, Canada), at a ratio of 3 μl of FuGENE per 1 μg of DNA. […]

[2] = test system: cyclin A/CDK2; experiment: In vitro kinase assay of immunoprecipitated cyclin A/CDK2 (histone H1 substrate); type: biochemical, human; settings: TReP-132 induced for 48 hours in HTO-GFP/TReP-132 cells
From the text: FIG. 9A: Kinase activities of each immunoprecipitated cyclin or CDK were quantified using pRb as substrate to measure cyclin D1/CDK6 activity, or histone H1 to measure cyclin A/CDK2 activity. The levels of phosphorylation of histone H1 or pRb in induced HTO cells (HeLa Tet Off) are expressed in relation to the levels in non-induced HTO cells (corresponding to level 1.0).
Cells were washed twice with cold PBS (Phosphate Buffered Saline), then harvested either in cold RIPA buffer (1×PBS, 1% Nonidet P-40, 0.5% sodium deoxycholate, 0.1% SDS, phosphatase and protease inhibitors) for co-immunoprecipitation analysis, or in lysis buffer (50 mM Tris, pH 8.0, 0.1% IGEPAL (Sigma)) for kinase assays. […] The blots were then visualized with ECL reagent and quantified with SCANWISE and Perfect-IMAGE V-5.3 software (CLARA VISION, France).
The kinase activities on histone H1 or Rb protein in the immunoprecipitates were measured as follows: the immunoprecipitates were first washed once with 1 ml of assay buffer (50 mM Tris-HCl, pH 7.4, 10 mM MgCl2, 1 mM dithiothreitol (DTT)), then resuspended in 20 μl of assay buffer containing 1 mg/ml casein (Sigma) and 1 μg of histone H1 or Rb protein (769) (sc-4112) as substrate. […]
The reaction was stopped by addition of 15 μl of electrophoresis buffer (3×). […] Phosphorylated Rb and histones were quantified by densitometry.

B1: TReP-132: Transcriptional Regulating Protein of 132 kDa, polypeptide comprising SEQ ID NO: 2; here expressed in cells from vectors (protein)
chain: MGDQQLYKTNHVAHGSENLFYQQPPLGVHSGLNHNYGNAVTGGGMDAPQASPISPHFPQDTRDGLGLPVGSKNLGQMDTSRQGGWGSHAGPGNHVQLRGNLANSNMMWGAPAQAEPTDGYQYTYSQASEIRTQKLTSGVLHKLDSFTQVFANQNLRIQVNNMAQVLHTQSAVMDGAPDSALRQLLSQKPMEPPAPAIPSRYQQVPQQPHPGFTGGLSKPALQVGQHPTQGHLYYDYQQPLAQVPVQGGQPLQAPQMLSQHMQQMQQHQYYPPQQQQQAGQQRISMQEIQTQPQQIRPSQPQPPPQQQQPQQLQLQQRQGSMQIPQYYQPQPMMQHLQEQQQQQMHLQPPSYHRDPHQYTPEQAHTVQLIPLGSMSQYYYQEPQQPYSHPLYQQSHLSQHQQREDSQLKTYSSDRQAQAMLSSHGDLGPPDTGMGDPASSDLTRVSSTLPHRPLLSPSGIHLNNMGPQHQQLSPSAMWPQMHLPDGRAQPGSPESSGQPKGAFGEQFDAKNKLTCSICLKEFKNLPALNGHMRSHGGMRASPNLKQEEGEKVLPPQPQPPLPPPPPPPPPPQLPPEAESLTPMVMPVSVPVKLLPPKPSSQGFTNSTVAAPSARDKPASSMSDDEMPVLEIPRKHQPSVPKAEEPLKTVQEKKKFRHRPEPLFIPPPPSYNPNPAASYSGATLYQSQLRSPRVLGDHLLLDPTHELPPYTPPPMLSPVRQGSGLFSNVLISGHGPGAHPQLPLTPLTPTPRVLLCRSNSIDGSNVTVTPGPGEQTVDVEPRINIGLRFQAEIPELQDISALAQDTHKATLVWKPWPELENHDLQQRVENLLNLCCSSALPGGGTNSEFALHSLFEAKGDVMVALEMLLLRKPVRLKCHPLANYHYAGSDKWTSLERKLFNKALATYSKDFIFVQKMVKSKTVAQCVEYYYTWKKIMRLGRKHRTRLAEIIDDCVTSEEEEELEEEEEEDPEEDRKSTKEEESEVPKSPEPPPVPVLAPTEGPPLQALGQPSGSFICEMPNCGAVFSSRQALNGHARIHGGTNQVTKARGAIPSGKQKPGGTQSGYCSVKSSPSHSTTSGETDPTTIFPCKECGKVFFKIKSRNAHMKTHRQQEEQQRQKAQKAAFAAEMAATIERTTGPVGAPGLLPLDQLSLIKPIKDVDILDDDVVQQLGGVMEEAEVVDTDLLLDDQDSVLLQGDAEL
B1 was tested, and the p27 promoter induction [1] was “approximately 7 fold” and the “in vitro kinase activity of cyclin A/CDK2” value [2] was “reduced”.
